Measured values from patent publication US20220306765A1.

Assays:
human FcγRI (human) = human FcγRI (human) (UniProt P12314); assay: BLI (Octet), receptor on sensor
[1] = molecular target: human FcγRIIIa-F176 (human) (UniProt P08637); assay: BLI (Octet), receptor on sensor
[2] = molecular target: human FcγRIIIa-V176 (human) (UniProt P08637); assay: BLI (Octet), receptor on sensor
[3] = molecular target: human FcγRIIIb-NA1 (human) (UniProt O75015); assay: BLI (Octet), receptor on sensor
[4] = molecular target: human FcγRIIIb-NA2 (human) (UniProt O75015); assay: BLI (Octet), receptor on sensor
Sequence of human FcγRIIIb-NA2 (human) (O75015 17-200 N65S limits assumed): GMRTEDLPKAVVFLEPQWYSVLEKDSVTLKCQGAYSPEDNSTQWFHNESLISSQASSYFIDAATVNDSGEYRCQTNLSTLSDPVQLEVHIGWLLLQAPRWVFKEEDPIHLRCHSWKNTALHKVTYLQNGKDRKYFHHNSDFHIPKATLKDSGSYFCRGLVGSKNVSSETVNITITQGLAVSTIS

[5] = molecular target: human FcγRIIa-H167 (human) (UniProt P12318); assay: BLI (Octet), receptor on sensor
Sequence of human FcγRIIa-H167 (human) (P12318 36-218 limits assumed): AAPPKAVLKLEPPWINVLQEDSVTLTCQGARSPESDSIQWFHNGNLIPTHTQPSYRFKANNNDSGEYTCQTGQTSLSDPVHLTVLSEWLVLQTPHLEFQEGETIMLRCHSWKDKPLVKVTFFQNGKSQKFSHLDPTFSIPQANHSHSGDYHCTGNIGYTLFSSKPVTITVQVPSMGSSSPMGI

[6] = molecular target: human FcγRIIa-R167 (human) (UniProt P12318); assay: BLI (Octet), receptor on sensor
Sequence of human FcγRIIa-R167 (human) (P12318 36-218 H167R limits assumed): as the sequence (P12318 36-218 limits assumed) above, with H132R counted along it

human FcγRIIb (human) = human FcγRIIb (human) (UniProt P31994); assay: BLI (Octet), receptor on sensor
Sequence of human FcγRIIb (human) (P31994 46-217 limits assumed): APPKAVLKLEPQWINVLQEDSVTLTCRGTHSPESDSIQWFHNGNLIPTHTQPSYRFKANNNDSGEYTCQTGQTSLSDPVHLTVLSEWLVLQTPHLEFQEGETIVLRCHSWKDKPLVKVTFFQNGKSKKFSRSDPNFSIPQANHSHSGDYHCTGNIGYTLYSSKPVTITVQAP

[7] = molecular target: Human FcRn (FCGRT&B2M) Protein (human) (UniProt P55899); assay: BLI (Octet), FcRn on sensor, pH 6.0
[8] = molecular target: human FcγRIIIa-F176 (human) (UniProt P08637); assay: BLI (Octet RED96), biotinylated receptor on SA sensor
[9] = molecular target: human FcγRIIIa-V176 (human) (UniProt P08637); assay: as above
[10] = molecular target: Human FcRn (FCGRT&B2M) Protein (human) (UniProt P55899); assay: BLI (Octet RED96), His-tagged FcRn on Ni-NTA sensor, pH 6.0
human C1q (human) [11] = molecular target: human C1q (human) (UniProt P02745); assay: BLI (Octet), biotinylated antibody on sensor, C1q in solution
Sequence of human C1q (human) (P02745 23-245, chain 1 of 3): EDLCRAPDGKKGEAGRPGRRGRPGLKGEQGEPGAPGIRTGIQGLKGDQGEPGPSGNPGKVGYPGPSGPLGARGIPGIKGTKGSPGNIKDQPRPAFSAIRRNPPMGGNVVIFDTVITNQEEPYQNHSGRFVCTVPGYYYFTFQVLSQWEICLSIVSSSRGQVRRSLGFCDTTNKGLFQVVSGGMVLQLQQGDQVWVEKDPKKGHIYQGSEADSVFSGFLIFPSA
Sequence of human C1q (human) (P02746 28-253, chain 2 of 3, further chain): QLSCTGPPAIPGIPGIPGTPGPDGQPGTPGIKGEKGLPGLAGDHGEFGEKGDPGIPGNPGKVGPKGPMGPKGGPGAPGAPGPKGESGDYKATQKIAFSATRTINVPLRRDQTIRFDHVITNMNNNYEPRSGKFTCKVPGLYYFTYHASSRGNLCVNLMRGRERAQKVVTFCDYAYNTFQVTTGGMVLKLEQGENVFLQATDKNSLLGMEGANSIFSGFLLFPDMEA
Sequence of human C1q (human) (P02747 29-245, chain 3 of 3, further chain): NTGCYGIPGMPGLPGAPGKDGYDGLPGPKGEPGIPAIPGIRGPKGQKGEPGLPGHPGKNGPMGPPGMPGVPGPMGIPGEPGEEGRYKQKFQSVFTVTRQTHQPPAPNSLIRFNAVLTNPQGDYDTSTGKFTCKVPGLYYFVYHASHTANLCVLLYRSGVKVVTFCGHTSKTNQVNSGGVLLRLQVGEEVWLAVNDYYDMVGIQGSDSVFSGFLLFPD

human C1q (human) [12] = molecular target: human C1q (human) (UniProt P02745); assay: BLI (Octet RED96), biotinylated antibody on SA sensor, C1q in solution
human CLDN18.2 (human) = assay: flow cytometry on NCI-H146 cells; unit taken from the concentration axis; fit of the flat control curve

Sequence of human FcγRIIIa-V176 (human) (P08637 17-208 F176V limits assumed): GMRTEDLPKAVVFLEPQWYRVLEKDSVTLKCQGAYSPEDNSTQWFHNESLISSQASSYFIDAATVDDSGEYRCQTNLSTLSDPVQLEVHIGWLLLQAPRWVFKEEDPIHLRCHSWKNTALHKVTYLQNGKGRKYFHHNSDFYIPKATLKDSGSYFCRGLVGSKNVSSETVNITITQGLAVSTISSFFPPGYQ
Sequence of human FcγRIIIa-F176 (human) (P08637 17-208 limits assumed): as the sequence (P08637 17-208 F176V limits assumed) above, with V160F counted along it
Sequence of human FcγRI (human) (P12314 16-288 limits assumed): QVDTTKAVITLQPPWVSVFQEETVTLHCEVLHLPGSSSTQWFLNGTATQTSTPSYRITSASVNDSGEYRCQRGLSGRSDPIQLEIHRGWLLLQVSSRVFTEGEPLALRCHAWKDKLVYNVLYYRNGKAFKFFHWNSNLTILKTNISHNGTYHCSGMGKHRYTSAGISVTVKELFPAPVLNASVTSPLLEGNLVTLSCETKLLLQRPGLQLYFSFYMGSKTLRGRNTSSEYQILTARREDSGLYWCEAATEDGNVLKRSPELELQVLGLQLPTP
Sequence of human FcγRIIIb-NA1 (human) (O75015 other isoform, or with tags, fused parts or gaps limits assumed): as the sequence (O75015 17-200 N65S limits assumed) above, with S20R, S49N, N66D, I90V counted along it

Row | Kd (human FcγRI (human)) | Kd [1] | Kd [2] | Kd [3] | Kd [4] | Kd [5] | Kd [6] | Kd (human FcγRIIb (human)) | Kd [7] | Kd [8] | Kd [9] | Kd [10] | Kd (human C1q (human) [11]) | Kd (human C1q (human) [12]) | EC50 (human CLDN18.2 (human)) | Substance
1 | 5.22 nM | 232 nM | 61.5 nM | 3970 nM | 3160 nM | 193 nM | 117 nM | 230 nM | 10.5 nM | 232 nM | 61.5 nM | 10.5 nM | 21.5 nM | 21.5 nM | – | IMAB362 (antibody)
2 | – | – | – | – | – | – | – | – | – | – | – | – | – | – | 3.67 µg/mL | Isotype Control (antibody)
